Assay results from paper PMC2270323, “Phosphorylation-Independent Regulation of the Diguanylate Cyclase WspR” (PLoS Biology, 2008).
Substitutions are numbered along the chain they refer to. In names and notes the source's numbering stands. Several values for one entry are separate records, joined by “and”; a condition that tells them apart may be missing. Equal values may be shown once.

Key:
[1] = target: WspR from P. syringae DC3000 (full length) (P. syringae DC3000); assay: crystal structure; unpublished data: crystal structure of the WspR homolog from P. syringae
[2] = target: the molecule itself; assay: SEC; c-di-GMP-bound protein as purified, 0.24 mM; Superdex 200 10/300; 25 mM Tris-Cl pH 7.5, 100 mM NaCl, 1 mM DTT
[3] = target: the molecule itself; assay: crystal structure; c-di-GMP-bound full-length WspR, 2.4 Å, space group C2, two molecules in the asymmetric unit; hanging drop, 0.1 M Tris-Cl pH 8.0, 2.9 M NaCl, 15% xylitol, 20 °C
[4] = target: the molecule itself; assay: SEC-MALS; stalk mutants as purified (c-di-GMP bound), approximately 0.1 mM; Shodex KW-803; 25 mM Tris-Cl pH 7.5, 100 mM NaCl, 1 mM DTT
[5] = target: the molecule itself; assay: SEC; nucleotide-free protein (wild type: PDE-treated, PDE and nucleotide removed; GGAAF as purified), 0.08-0.24 mM; Superdex 200 10/300; 25 mM Tris-Cl pH 7.5, 100 mM NaCl, 1 mM DTT; distribution depends on protein concentration
[6] = target: the molecule itself; assay: SEC-MALS; nucleotide-free mutants as purified, 4 mg/ml (approximately 0.1 mM); Shodex KW-803; 25 mM Tris-HCl pH 7.5, 100 mM NaCl, 1 mM DTT
[7] = target: the molecule itself; assay: SEC; unpublished data: lysates of E. coli expressing WspR^R242A or WspR^GGAAF, gel filtration

**Q.** For “WspR from P. syringae DC3000 (full length) (enzyme)”, which stoichiometry N [1] is on record?
**A.** Its stoichiometry N is 4.

B1: WspR from P. aeruginosa, wild type (full length) (enzyme)
chain: MHNPHESKTDLGAPLDGAVMVLLVDDQAMIGEAVRRSLASEAGIDFHFCSDPQQAVAVANQIKPTVILQDLVMPGVDGLTLLAAYRGNPATRDIPIIVLSTKEEPTVKSAAFAAGANDYLVKLPDAIELVARIRYHSRSYIALQQRDEAYRALRESQQQLLETNLVLQRLMNSDGLTGLSNRRHFDEYLEMEWRRSLREQSQLSLLMIDVDYFKSYNDTFGHVAGDEALRQVAGAIREGCSRSSDLAARYGGEEFAMVLPGTSPGGARLLAEKVRRTVESLQISHDQPRPGSHLTVSIGVSTLVPGGGGQTFRVLIEMADQALYQAKNNGRNQVGLMEQPVPPAPAG
notes: the nucleotide-free form was made by treatment with the PDE SadR/RocR and repurification; The nucleotide state is told in each assay's format; also called WspR^wt; PA3702; source: E. coli BL21(DE3), purified (NiNTA, SEC); also E. coli BL21, in lysate; not shown: His6, C-terminal, kept
**Q.** B1 was tested. Which “stoichiometry N” value [2] did it give?
**A.** The value was 2.

**Q.** And the “stoichiometry N” value [3]?
**A.** The value was 4.

B2: WspR^L170D (stalk mutant of P. aeruginosa WspR) (enzyme)
chain: B1 chain with L170D
notes: WspR, P. aeruginosa PAO1, locus tag PA3702, with L170D; source: E. coli, purified
**Q.** For B2, which “stoichiometry N” value [4] is on record?
**A.** The value was 2 and 4.

B3: WspR^GGAAF (catalytically dead mutant of P. aeruginosa WspR) (enzyme)
chain: B1 chain with E253A, E254A
notes: WspR, P. aeruginosa PAO1, locus tag PA3702; the two central glutamates of the GGEEF motif (residues 251-255) replaced by alanines; Purifies nucleotide-free; source: E. coli BL21(DE3), purified (NiNTA, SEC); also E. coli BL21, in lysate; not shown: His6, C-terminal, kept
**Q.** How did the “stoichiometry N” value [5] turn out when B3 was run?
**A.** Its value is 4 and 2.

B4: WspR^R242A (I-site mutant of P. aeruginosa WspR) (enzyme)
chain: B1 chain with R242A
notes: WspR, P. aeruginosa PAO1, locus tag PA3702, with R242A; Purifies essentially nucleotide-free; source: E. coli BL21(DE3), purified (NiNTA, SEC); also E. coli BL21, in lysate; not shown: His6, C-terminal, kept
**Q.** Which “stoichiometry N” value [6] does the source give for B4 here?
**A.** Its value is 4.

**Q.** What about the “stoichiometry N” value [7] of the same molecule?
**A.** Its value is 2.

B5: WspR^R198A (I-site mutant of P. aeruginosa WspR) (enzyme)
chain: B1 chain with R198A
notes: WspR, P. aeruginosa PAO1, locus tag PA3702, with R198A; Purifies essentially nucleotide-free; source: E. coli BL21(DE3), purified (NiNTA, SEC)
**Q.** With B5 as the molecule, how does the “stoichiometry N” value [6] read?
**A.** Its value is 2 and 4.
